Experimental data reported in patent publication US5804555.

Target: commercially available lactoferrin (manufactured by Oleofina Company, Belgium) just as isolated from cow's milk (bovine (cow's milk)) (UniProt P24627)

hydrolyzing rate of the product: 11.3%
Substance: commercially available swine pepsin (1:10000; manufactured by Wako Jun-yaku Co., Ltd.) (from UniProt P00791) (enzyme)
